Data taken from US20110300138A1 (published 2011).
Each block holds one molecule with its values, some of them ahead of it.

How the values were obtained:
[1] = molecular target: TSH receptor (full length human TSHR) coated on tubes (human) (UniProt P16473); test: 125I-TSH binding inhibition read against NIBSC 90/672; mean over 10, 30 and 100 ng/mL, in serum
[2] = molecular target: TSH receptor (full length human TSHR) (human) (UniProt P16473); test: competition ELISA: inhibition of M22 Fab-peroxidase (competitor) binding to TSHR coated wells; negative control at 100 µg/mL diluted in HBD serum pool
[3] = molecular target: TSH receptor (TSHR) coated on tubes (human) (UniProt P16473); test: inhibition of 125I-K1-70 IgG binding to TSHR coated tubes; negative control 1 µg/mL in assay buffer
[4] = molecular target: human thyroid stimulating hormone receptor (TSHR), full length (human) (UniProt P16473); test: 125I-K1-70 Fab (competitor) binding to TSHR coated tubes; negative control MAb 0.1 µg/mL in HBD serum
[5] = molecular target: TSHR (full length) coated on tubes (human) (UniProt P16473); test: inhibition of 125I-K1-18 Fab (competitor) binding to TSHR coated tubes; negative control 0.01 µg/mL in assay buffer
[6] = molecular target: thyroid stimulating hormone receptor (TSHR), full length human TSHR (human) (UniProt P16473); test: TSH-biotin competition ELISA, TSHR coated wells; negative control, 0.01 µg/mL in HBD serum
[7] = molecular target: TSH receptor (full length human TSHR) (human) (UniProt P16473); test: competition ELISA: inhibition of M22 Fab-peroxidase (competitor) binding to TSHR coated wells; negative control at 10 µg/mL diluted in assay buffer
[8] = molecular target: thyroid stimulating hormone receptor (TSHR), full length human TSHR (human) (UniProt P16473); test: TSH-biotin competition ELISA, TSHR coated wells; negative control, 1 µg/mL in assay buffer
[9] = molecular target: TSH receptor (TSHR), full length human, coated on tubes (human) (UniProt P16473); test: inhibition of 125I-K1-18 IgG binding to TSHR coated tubes; competitor 125I-K1-18 IgG; negative control sample at 10 µg/mL in assay buffer
[10] = molecular target: human thyroid stimulating hormone receptor (TSHR), full length (human) (UniProt P16473); test: 125I-K1-70 Fab (competitor) binding to TSHR coated tubes; negative control MAb 0.01 µg/mL in assay buffer
[11] = molecular target: TSHR (thyroid stimulating hormone receptor), full length human (human) (UniProt P16473); test: negative control; competitor ^125I-K1-70 IgG, TSHR coated tubes; 100 µg/mL in HBD
[12] = molecular target: TSHR (thyroid stimulating hormone receptor), full length human (human) (UniProt P16473); test: negative control; competitor ^125I-K1-70 IgG, TSHR coated tubes; 1 µg/mL in assay buffer
[13] = molecular target: human TSH receptor (full length) coated on ELISA plate wells (human) (UniProt P16473); test: TSH-biotin binding inhibition ELISA, TSHR coated wells; 100 µg/mL in HBD serum pool; negative control MAb
[14] = molecular target: TSHR (thyroid stimulating hormone receptor), full length human (human) (UniProt P16473); test: competitor ^125I-K1-70 IgG, TSHR coated tubes; 10 µg/mL in assay buffer
[15] = molecular target: thyroid stimulating hormone receptor (TSHR), full length human TSHR (human) (UniProt P16473); test: TSH-biotin competition ELISA, TSHR coated wells; 0.1 µg/mL in assay buffer
[16] = molecular target: TSH receptor (full length human TSHR) (human) (UniProt P16473); test: competition ELISA: inhibition of M22 Fab-peroxidase (competitor) binding to TSHR coated wells; test sample at 0.1 µg/mL diluted in HBD serum pool
[17] = molecular target: wild type TSHR expressed in CHO cells (human) (UniProt P16473); test: cell-based or functional assay
[18] = molecular target: TSHR with Phe130 mutated to Ala, expressed in CHO cells (human) (UniProt P16473); test: cell-based or functional assay
[19] = molecular target: TSH receptor (TSHR), full length human, coated on tubes (human) (UniProt P16473); test: inhibition of 125I-TSH binding to TSHR coated tubes; 10 µg/mL, diluted in HBD serum pool
[20] = molecular target: TSH receptor (TSHR), full length human, coated on tubes (human) (UniProt P16473); test: inhibition of 125I-K1-18 IgG (competitor) binding to TSHR coated tubes; test sample at 0.01 µg/mL in HBD serum pool
[21] = molecular target: TSH receptor (TSHR), full length human, coated on tubes (human) (UniProt P16473); test: inhibition of 125I-TSH binding to TSHR coated tubes; 10 µg/mL, diluted in assay buffer
[22] = molecular target: thyroid stimulating hormone receptor (full length human TSHR) (human) (UniProt P16473); test: ELISA, inhibition of TSH-biotin binding to TSHR coated wells; 0.1 µg/mL, diluted in assay buffer
[23] = molecular target: human TSH receptor (full length) coated on ELISA plate wells (human) (UniProt P16473); test: TSH-biotin binding inhibition ELISA, TSHR coated wells; 1 µg/mL in assay buffer + 100 µg/mL 5B3 IgG
[24] = molecular target: human thyroid stimulating hormone receptor (TSHR), full length (human) (UniProt P16473); test: 125I-K1-18 Fab competition, TSHR coated tubes; 100 µg/mL in HBD
[25] = molecular target: TSH receptor (TSHR), full length human, coated on tubes (human) (UniProt P16473); test: inhibition of 125I-TSH binding to TSHR coated tubes; 0.1 µg/mL, diluted in assay buffer
[26] = molecular target: human TSH receptor (full length) coated on ELISA plate wells (human) (UniProt P16473); test: TSH-biotin binding inhibition ELISA, TSHR coated wells; 0.01 µg/mL in HBD serum pool
[27] = molecular target: TSH receptor (TSHR) coated on tubes (human) (UniProt P16473); test: inhibition of 125I-K1-70 IgG binding to TSHR coated tubes; sample 10 µg/mL in assay buffer

- Inhibition of binding (%) [2]: 3.8%
- Inhibition of binding (%) [3]: -2.6%
- Inhibition of binding (%) [4]: -8.7%
- Inhibition of binding (%) [5]: 0%
- Inhibition of binding (%) [6]: -5.1%
- Inhibition of binding (%) [7]: 2.4%
- Inhibition of binding (%) [8]: -8.3%
- Inhibition of binding (%) [9]: -2.7%
- Inhibition of binding (%) [10]: -1.7%
- Inhibition of binding (%) [11]: -0.9%
- Inhibition of binding (%) [12]: 4.2%
- % inhibition of TSH-biotin binding [13]: 10.9%
Molecule: 5B3 IgG (antibody)

- % inhibition of TSH stimulation; TSH (2) [17]: 0%
- Cyclic AMP produced; TSH 3 ng/mL [17]: 79.4 pmol/mL
- Cyclic AMP produced; TSH (2) [17]: 89.1 pmol/mL
- % inhibition of TSH stimulation; TSH (2) [18]: 0%
- Cyclic AMP produced; TSH 3 ng/mL [18]: 121 pmol/mL
- Cyclic AMP produced; TSH (2) [18]: 95.4 pmol/mL
- Mutated/wild type (%) of cyclic AMP produced; TSH 3 ng/mL [18]: 152%
- Mutated/wild type (%) of cyclic AMP produced; TSH (2) [18]: 107%
Molecule: TSH (ligand)

The remaining lines, values behind:

Molecule: M22 IgG (antibody)
- mean units/mg [1]: 131 units/mg

Molecule: 9D33 IgG (antibody)
- Inhibition of binding (%) [14]: 41.7%
- Inhibition of binding (%) [15]: 59.7%
- Inhibition of binding (%) [16]: 24.1%

B1: 5C9 IgG (antibody, from another filing, V domains shown)
VH: EVQLVESGGGLIQPGGSLRLSCAASGFTVSSNYMSWVRQAPGKGLEWVSVTYSGGSTSYADSVKGRFTISRDNSKNTLYLQMNSLRAEDTAVYYCARGGRYCSSISCYARSGCDYWGQGTLVTVSS
VL: AIQMTQSPSSLSASVGDRVTITCRASQSISNYLNWYQQKPGKAPKLLIYAASSLQSGVPSRFSGSGSGTDFTLTISSLQPEDFATYYCQQSYSSPSTTFGQGTKLEIK
- Inhibition of binding (%) [19]: 39.9%
- Inhibition of binding (%) [20]: -1.8%
- Inhibition of binding (%) [21]: 76.7%
- Inhibition of binding (%) [22]: 26.1%
- % inhibition of TSH-biotin binding [23]: 46.7%
- Inhibition of binding (%) [24]: 61.3%
- Inhibition of binding (%) [25]: 24.4%
- % inhibition of TSH-biotin binding [26]: 7.5%
- Inhibition of binding (%) [27]: 84.8%
